These results are taken from the supplement of paper PMC10567573.

± gives the standard deviation.

The data set is described as follows: protein stability index of a GFP-peptide fusion (GPS, HEK-293T) (PSI 1-6); higher = more stable. To be noted: c terminus: a fixed tail appended.
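Also: 24-mer peptide tiles fused after GFP, lentivirally expressed, FACS-sorted into six equal bins by GFP/DsRed ratio, decoded by Illumina sequencing, PSI is the read-weighted mean bin number.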

CVLYACFILGRLCVPVFANMSREP [SOAT2] had a protein stability index (treatment: DMSO) of 3 ± 0.36 and a protein stability index (treatment: MLN4924 1 uM, 8 h) of 3.31 ± 0.21.
For SDSDSELSSSEGLEPGSADPLANG [PSD2], in that order: 5.5 ± 0.35 and 5.59 ± 0.14.
The like results for QDIERGVQSEIFLHESYCMDTSHQ [LYSMD4] were, in that order, 4.24 ± 0.15 and 4.25 ± 0.14.
For ENITTVSVIKDHHTRSITSCCFDP [WDR88], in that order: 3.55 ± 0.28 and 3.78 ± 0.16.
As for PPTYPTKYFGCELGAQTQFDVKND [EIF5], the protein stability index is, setting by setting: (treatment: DMSO) 4.35 ± 0.17; (treatment: MLN4924 1 uM, 8 h) 4.494 ± 0.038.
With DGGSSLASGSTQRQPPPPAPQHPQ [FBXO28], the protein stability index (treatment: DMSO) is 5.22 ± 0.34 and the protein stability index (treatment: MLN4924 1 uM, 8 h) was determined as 5.18 ± 0.35.
The sequence QPPPQSSEGLVGALMHVMQKRSRA [WAS] displayed a protein stability index (treatment: DMSO) of 4.21 ± 0.41 and a protein stability index (treatment: MLN4924 1 uM, 8 h) of 4.24 ± 0.12.
For EDQYEENSHLTSVPHWINSNTLGF [ETS2], in that order: 3.2 ± 0.34 and 3.13 ± 0.3.
For SFDYEQFHELQMQVTASDSGDPPL [PCDHGA10], in that order: 4.89 ± 0.21 and 4.9 ± 0.15.
For EDRLSLKFLPSSEEDNDDAKILPS [DRICH1], the protein stability index runs as follows: (treatment: DMSO) 5.34 ± 0.23; (treatment: MLN4924 1 uM, 8 h) 5.33 ± 0.11.
For RTKVVKPYSTVDNPVYYGPSDFFI [EFHC1], in that order: 2.35 ± 0.22 and 2.42 ± 0.36.
On to SWYPKANNQDFIPFTKKRVGVDRA [ZC2HC1C], for which the protein stability index runs as follows: (treatment: DMSO) 3.07 ± 0.33; (treatment: MLN4924 1 uM, 8 h) 2.94 ± 0.15.
The like results for RIFKLSRHSKGLQILGQTLKASMR [KCNA1] were, in that order, 2.54 ± 0.4 and 2.65 ± 0.58.
For CEALINRVSAMRDYRGPDCRYLNF [MIA2], the protein stability index reads like this: (treatment: DMSO) 2.3 ± 0.33; (treatment: MLN4924 1 uM, 8 h) 2.53 ± 0.14.
The like results for RLVFLAAFVVYLETETLVTREAVT [TSN] were, in that order, 3.6 ± 0.24 and 2.82 ± 0.34.
For ENARSGAEAEPEDQDEGEWGLDQE [ZBED1], in that order: 5.62 ± 0.15 and 5.56 ± 0.28.
For KLSPLRLSVSNNQEPDFIDDIEEK [KMT2E], in that order: 4.9 ± 0.24 and 5.06 ± 0.12.
In the case of EEERAQDRIATTDDTTAMASASSS [MAGEA10], the protein stability index runs as follows: (treatment: DMSO) 5.66 ± 0.17; (treatment: MLN4924 1 uM, 8 h) 5.42 ± 0.1.
For WGCDLGVVTRVVTGVYPRCLHASQ [BRF1], in that order: 2.89 ± 0.8 and 2.3 ± 0.46.
The like results for YDPTYKDKEGPSPKVEYVWRNIIL [SCD] were, in that order, 2.11 ± 0.47 and 2.37 ± 0.23.
SYAHGWMFQGWNCGDYFPDGITNG [CPN1]: the protein stability index by setting is: (treatment: DMSO) 2.35 ± 0.18; (treatment: MLN4924 1 uM, 8 h) 2.27 ± 0.17.
The like results for IPQLEDVSNFLKERTGFSIRPVAG [TPH1] were, in that order, 2.98 ± 0.34 and 2.98 ± 0.14.
In the case of PAFIIVKLSPLRDRLVVTECQLTH [ZSWIM9], the protein stability index runs as follows: (treatment: DMSO) 3.33 ± 0.57; (treatment: MLN4924 1 uM, 8 h) 3.02 ± 0.54.
In turn, IYGMEGIPEKDMDERRRLLEQKTQ [ZNF207] yielded a protein stability index (treatment: DMSO) of 4.6 ± 0.17 and a protein stability index (treatment: MLN4924 1 uM, 8 h) of 4.69 ± 0.15.
In the case of KLAVFMWLMTYVGAVFNGITLLIL [RTN3], the protein stability index (treatment: DMSO) is 2.97 ± 0.23 and the protein stability index (treatment: MLN4924 1 uM, 8 h) was found to be 3.21 ± 0.39.
The like results for MSIMGNVLRFLPAFVRMKQLIEEG [GFOD1] were, in that order, 2.31 ± 0.43 and 2.42 ± 0.28.
For LYPAVSAVWGQCQVRIRYLGERRA [SPSB2], in that order: 2.56 ± 0.19 and 2.62 ± 0.38.
The like results for LWKRMDKLEAEKRILQEKLDQPVS [CCDC6] were, in that order, 3.81 ± 0.2 and 3.94 ± 0.35.
For PRGSHSSALERLETKLHLLRQEMV [LURAP1L], the protein stability index is 2.53 ± 0.33 (treatment: DMSO) and 2.69 ± 0.27 (treatment: MLN4924 1 uM, 8 h).
In turn, RMTISLTVILIESTNEITYGLPIM [CLCN6] returned a protein stability index (treatment: DMSO) of 2.98 ± 0.3 and a protein stability index (treatment: MLN4924 1 uM, 8 h) of 3.06 ± 0.092.
The like results for CNDGRIVIWDFLTRGIAKIISAHI [RBBP5] were, in that order, 3.03 ± 0.42 and 2.66 ± 0.41.
In turn, QMMPYMQPVMQSDRTAIRSDTTHL [KLHL13] registered a protein stability index (treatment: DMSO) of 3.5 ± 0.24 and a protein stability index (treatment: MLN4924 1 uM, 8 h) of 3.5 ± 0.23.
Turning to IGTPPSVLKRQRKRRVALSPVTEN [MYBL2], the protein stability index is, setting by setting: (treatment: DMSO) 4.22 ± 0.56; (treatment: MLN4924 1 uM, 8 h) 4.49 ± 0.14.
For the sequence IRHQRIHTGEKPYTCHECGDSFSH [ZNF263], the protein stability index runs as follows: (treatment: DMSO) 2.62 ± 0.4; (treatment: MLN4924 1 uM, 8 h) 2.7 ± 0.36.
For CASKYGRDWERYTAAVPYRLLPGI [DHCR7], in that order: 2.05 ± 0.24 and 2.2 ± 0.21.
The like results for VAKRKSSMPQKFLGDKGLSDTPYD [IKZF1] were, in that order, 4.22 ± 0.1 and 4.38 ± 0.16.
